T1: CD200R1 on HH (CRL-2105) cells (Homo sapiens, UniProt Q8TD46)
T1 construct: HH (CRL-2105) cells, which endogenously express CD200R1; host or cells: HH (CRL-2105) cells
T1 sequence (Q8TD46 25-348): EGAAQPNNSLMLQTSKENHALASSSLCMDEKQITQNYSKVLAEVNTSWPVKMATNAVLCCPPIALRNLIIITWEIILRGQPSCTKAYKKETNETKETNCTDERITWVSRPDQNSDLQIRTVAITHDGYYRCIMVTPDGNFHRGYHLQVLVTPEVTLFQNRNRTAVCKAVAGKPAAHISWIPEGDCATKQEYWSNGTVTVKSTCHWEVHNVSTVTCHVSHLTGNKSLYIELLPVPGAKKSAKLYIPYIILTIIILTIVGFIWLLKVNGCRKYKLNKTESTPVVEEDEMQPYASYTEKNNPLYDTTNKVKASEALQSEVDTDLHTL

T2: CD200R1 on Jurkat-CD200R1 cells (Homo sapiens, UniProt Q8TD46)
T2 construct: host or cells: Jurkat
T2 sequence (Q8TD46 25-348): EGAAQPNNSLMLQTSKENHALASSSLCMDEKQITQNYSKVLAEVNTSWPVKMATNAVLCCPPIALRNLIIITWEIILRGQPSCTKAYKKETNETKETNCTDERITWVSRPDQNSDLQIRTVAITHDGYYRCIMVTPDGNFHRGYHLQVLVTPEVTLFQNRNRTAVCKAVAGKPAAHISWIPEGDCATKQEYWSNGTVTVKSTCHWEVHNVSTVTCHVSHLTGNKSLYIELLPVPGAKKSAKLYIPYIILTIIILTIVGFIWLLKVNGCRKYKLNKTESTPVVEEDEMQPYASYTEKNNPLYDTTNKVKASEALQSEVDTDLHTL

B1: P001009: phage display anti-CD200R1 clone; VH SEQ ID NO: 79, VL SEQ ID NO: 94 (antibody, V domains shown)
VH: EVQLLESGGGLVQPGGSLRLSCAASGFTFSSYDMSWVRQAPGKGLEWVSWISHGGGSIYYADSVKGRFTISRDNSKNTLYLQMNSLRAEDTAVYYCARDAPAYSAPLFDYWGQGTLVTVSS
VL: QSVLTQPPSASGTPGQRVTISCSGSSSNIGNNAVNWYQQLPGTAPKLLIYYDSNRPSGVPDRFSGSKSGTSASLAISGLRSEDEADYYCAAWDDSLSGYVFGGGTKLTVL
B2: P001009v1: P001009 variant, LC S52 and LC S94 substituted with K and R; VH SEQ ID NO: 79 (antibody, V domains shown)
VH: EVQLLESGGGLVQPGGSLRLSCAASGFTFSSYDMSWVRQAPGKGLEWVSWISHGGGSIYYADSVKGRFTISRDNSKNTLYLQMNSLRAEDTAVYYCARDAPAYSAPLFDYWGQGTLVTVSS
VL: QSVLTQPPSASGTPGQRVTISCSGSSSNIGNNAVNWYQQLPGTAPKLLIYYDKNRPSGVPDRFSGSKSGTSASLAISGLRSEDEADYYCAAWDDRLSGYVFGGGTKLTVL

How the values were obtained:
[1] = molecular target: T1, CD200R1 on HH (CRL-2105) cells; experiment: Cell binding assay (flow cytometry), HH cells; format: cell-based
Protocol: (§1) The binding ability of the antibodies identified using unique multifaceted antibody discovery technology was identified in HH (CRL-2105) cells, which endogenously express CD200R1, and Jurkat-CD200R1 cells (Source: DiscoverX), which were generated by intranuclear injection of CD200R1 cDNA.
(§2) HH and Jurkat-CD200R1 cells were maintained in RPMI 1640 medium supplemented with 10% heat-inactivated FBS and 1% Penicillin/Streptomycin (P/S). The cells were washed by centrifugation at 130 g for 5 minutes. The cells were seeded onto 96-well round-bottom plates (SPL, #34296) at a density of 1×10^5 cells/well in Flow cytometry staining buffer (Invitrogen, #00-4222-26) or FACS buffer. The cells were treated with all 16 substances and the positive control LY3454738 (US 2020/0087395, I-4P, at Eli Lilly) a concentration of 500 nM in the IgG1 form. After incubation for 1 hour at 4° C., the cells were treated with Alexa-647 Goat anti-human IgG (H+L) cross-adsorbed secondary antibody (Invitrogen, #A21445) and incubated at 4° C. for an additional 30 minutes. […]
(§3) Cell-binding ability was determined in the same manner as in Example 12. For the six active substances primarily selected in Example 12, the isotype was changed to IgG4 or the LALAPG gene was mutated, and binding activity was determined in the two cell lines mentioned above.
(§4) Binding ability was determined in HH, an endogenous T cell line with high CD200R1 expression, and two additional overexpressing cell lines: U937-CD200R overexpressing cells, generated by intranuclear injection of human CD200R1 CDNA into the monocytic cell line U937 (CRL-1593.2) (Source: UMC Utrecht, the Netherlands) and Jurkat-CD200R overexpressing cells, were also cells engineered using a similar method.
(§5) All cell lines were maintained in RPMI 1640 medium supplemented with 10% heat-inactivated FBS and 1% penicillin/streptomycin (P/S) and cell binding was determined in the same manner as in Example 12. […]
(§6) Specific binding ability was determined using P001009 WT and antibody-optimized mutants, P001009v1, P001009v2, P001009v3, and P001009v4. […]

[2] = molecular target: T2, CD200R1 on Jurkat-CD200R1 cells; experiment: Cell binding assay (flow cytometry), Jurkat-CD200R1 cells; format: cell-based
Protocol: as §1, §2, §3, §4, §5, §6

[3] = tested on: Dok2 phosphorylation in Jurkat-CD200R1 cells; experiment: Dok2 protein phosphorylation, Jurkat-CD200R1 reporter cells (PathHunter); format: cell-based, human; details: for RLU: Jurkat-CD200R1 reporter cells, Fc capture antibody
Protocol: Jurkat-CD200R1 cells were maintained as shown in Example 17 and were then seeded in triplicate onto CulturePlate-384, a White Opaque 384-well microplate (PerkinElmer, #6007688) at a density of 8,000 cells/well (32 μl). AssayComplete Cell Plating 0 Reagent (DiscoverX, #93-0563ROA) was used for cell plating and antibody dilution. The seeded cells were incubated at 37° C. and 5% CO2 for 30 minutes.
During the reaction, an Fc capture antibody, anti-human IgG (Fc-specific) antibody produced in goat (Sigma Aldrich, #12136, 2.3 mg/ml), was diluted in AssayComplete media and incubated at 37° C., 5% CO2 for 30 minutes. After incubation of both the plate containing the cells and the Fc capture antibody, the cells were treated with the Fc capture antibody at a concentration of 50 μg/ml per well. The reaction was incubated for 3 hours at 37° C., 5% CO2. After cross-reactivity with the Fc capture antibody, the cells were treated with a total of three antibodies, as shown in Example 17. The cells were diluted two-fold from a maximum concentration of 50 nM to 25 nM, 12.5 nM, 6.25 nM, 3.12 nM, 1.56 nM, 0.78 nM, 0.39 nM, 0.20 nM, 0.098 nM, and 0.049 nM. After treatment, the result was reacted at room temperature for an additional 2 hours.
The PathHunter Detection kit (DiscoverX, #93-0001) was used to confirm the response of the treated antibodies to the Jurkat-CD200R1 reporter cell line. Final data were analyzed using an Infinite M200 Pro Plate reader (Tecan) to measure the luminescence from phosphorylated Dok2. […] luminescence unit (RLU) is an arbitrary unit representing luminescence, calculated by converting the signal detected by a cross-linked Fc capture antibody.

Molecule	cell binding ability, IgG4 or LALAPG mutants ([1]; HH cells)	cell binding ability, IgG4 or LALAPG mutants ([2]; Jurkat-CD200R1 cells)	luminescence due to phosphoDok2 [3]	RLU ([3]; antibody dose 0.05 nM) [a.u.]	RLU ([3]; antibody dose 0.10 nM) [a.u.]	RLU ([3]; antibody dose 0.20 nM) [a.u.]	RLU ([3]; antibody dose 0.39 nM) [a.u.]	RLU ([3]; antibody dose 0.78 nM) [a.u.]	RLU ([3]; antibody dose 1.56 nM) [a.u.]	RLU ([3]; antibody dose 3.13 nM) [a.u.]	RLU ([3]; antibody dose 6.25 nM) [a.u.]	RLU ([3]; antibody dose 12.5 nM) [a.u.]	RLU ([3]; antibody dose 25 nM) [a.u.]	RLU ([3]; antibody dose 50 nM) [a.u.]	binding ability to HH cell line ([1]; serial dilution from 100 nM)	binding ability to Jurkat-CD200R1 ([2]; serial dilution from 100 nM)
B1	highest efficacy	highest efficacy	exhibited luminescence due to phosphoDok2	10432 ± 2166	10359 ± 1227	15184 ± 2826	10861 ± 917	25264 ± 1484	33140 ± 5780	41203 ± 4810	56115 ± 6866	57733 ± 6385	50858 ± 8029	37120 ± 14299		
B2			exhibited luminescence due to phosphoDok2	9521 ± 1128	10677 ± 2258	17866 ± 1925	11340 ± 509	28644 ± 4755	32863 ± 4207	29729 ± 3825	48879 ± 1315	45830 ± 6990	53185 ± 13281	32676 ± 5379	exhibited binding ability	highest binding ability

From patent publication US20260263521A1, “ANTI-CD200R1 ANTIBODY AND USE THEREOF” (AIMED BIO INC., priority 2023, published 2026)
